PMC5821319

B1: MeV-H genotype A (measles virus envelope hemagglutinin protein): N200D (protein)
parent chain: MSPQRDRINAFYKDNPHPKGSRIVINREHLMIDRPYVLLAVLFVMFLSLIGLLAIAGIRLHRAAIYTAEIHKSLSTNLDVTNSIEHQVKDVLTPLFKIIGDEVGLRTPQRFTDLVKLISDKIKFLNPDREYDFRDLTWCINPPERIKLDYDQYCADVAAEELMNALVNSTLLETRTTNQFLAVSKGNCSGPTTIRGQFSNMSLSLLDLYLGRGYNVSSIVTMTSQGMYGGTYLVEKPNLSSKRSELSQLSMYRVFEVGVIRNPGLGAPVFHMTNYLEQPVSNDLSNCMVALGELKLAALCHGEDSITIPYQGSGKGVSFQLVKLGVWKSPTDMQSWVPLSTDDPVIDRLYLSSHRGVIADNQAKWAVPTTRTDDKLRMETCFQQACKGKIQALCENPEWAPLKDNRIPSYGVLSVDLSLTVELKIKIASGFGPLITHGSGMDLYKSNHNNVYWLTIPPMKNLALGVINTLEWIPRFKVSPYLFTVPIKEAGEDCHAPTYLPAEVDGDVKLSSNLVILPGQDLQYVLATYDTSRVEHAVVYYVYSPSRSFSYFYPFRLPIKGVPIELQVECFTWDQKLWCRHFCVLADSESGGHITHSGMVGMGVSCTVTREDGTNRR
B2: MeV-H genotype A (measles virus envelope hemagglutinin protein): D416N (protein)
parent chain: MSPQRDRINAFYKDNPHPKGSRIVINREHLMIDRPYVLLAVLFVMFLSLIGLLAIAGIRLHRAAIYTAEIHKSLSTNLDVTNSIEHQVKDVLTPLFKIIGDEVGLRTPQRFTDLVKLISDKIKFLNPDREYDFRDLTWCINPPERIKLDYDQYCADVAAEELMNALVNSTLLETRTTNQFLAVSKGNCSGPTTIRGQFSNMSLSLLDLYLGRGYNVSSIVTMTSQGMYGGTYLVEKPNLSSKRSELSQLSMYRVFEVGVIRNPGLGAPVFHMTNYLEQPVSNDLSNCMVALGELKLAALCHGEDSITIPYQGSGKGVSFQLVKLGVWKSPTDMQSWVPLSTDDPVIDRLYLSSHRGVIADNQAKWAVPTTRTDDKLRMETCFQQACKGKIQALCENPEWAPLKDNRIPSYGVLSVDLSLTVELKIKIASGFGPLITHGSGMDLYKSNHNNVYWLTIPPMKNLALGVINTLEWIPRFKVSPYLFTVPIKEAGEDCHAPTYLPAEVDGDVKLSSNLVILPGQDLQYVLATYDTSRVEHAVVYYVYSPSRSFSYFYPFRLPIKGVPIELQVECFTWDQKLWCRHFCVLADSESGGHITHSGMVGMGVSCTVTREDGTNRR

Columns and labels:
[1] = cell surface flow cytometry, mAb BH026, Expi293; conditions: control: unmutated MeV-H genotype A
[2] = Western blot of transfected Vero cell lysates (total); conditions: control: unmutated MeV-H genotype A

Protein | expression_or_secretion ([1]; glycan lost) | expression_or_secretion ([2]; glycan lost) | expression_or_secretion ([1]; glycan gained) | expression_or_secretion ([2]; glycan gained)
B1 | decreases | decreases |  | 
B2 |  |  | no change | no change
